Three substances from US20030187247A1 can be followed below.

Test [1] concerns the target gp120 derived from the HIV-1 strain LAI (Repligen) (HIV-1 strain LAI) (UniProt P03377). In words: SPR (BIAcore), gp120 immobilized. For orientation: In SPR one partner is held on a chip, and binding of the other changes the refractive index at the surface.
Test [2] has the same target. The experiment in a line: BIAcore sandwich, Fab 2 on gp120 held by Fab 1; competitor (Fab 1): b6.
For test [3], the target named is HXBc2 mature gp120 expressed by COS-1 cells (HIV-1 (HXBc2 clone)) (UniProt P04578).
For test [4], the target named is gp120 derived from the HIV-1 strain LAI (Repligen) (HIV-1 strain LAI) (UniProt P03377). In words: BIAcore sandwich, Fab 2 on gp120 held by Fab 1; competitor (Fab 1): b13.
For test [5], the target named is multimeric HXBc2 envelope glycoprotein complex on the transfected COS-1 cell surface (HIV-1 (HXBc2 clone)) (UniProt P04578). In words: Fab on transfected COS-1 cells, immunoprecipitation.
Test [6] addresses gp120 derived from the HIV-1 strain LAI (Repligen) (HIV-1 strain LAI) (UniProt P03377). In words: SPR (BIAcore), kon/koff.
Test [7] concerns the target HXBc2 gp120 mutant NO V1/V2 (HIV-1 (HXBc2 clone of strain LAI)) (UniProt P04578). The experiment in a line: capture ELISA (D7324).
Test [8] concerns the target recombinant gp120 of HIV-1 strain IIIB (HIV-1 strain IIIB) (UniProt P04578). The experiment in a line: inhibition ELISA, free gp120 titrated against plate-bound gp120. (In general: ELISA stands for enzyme-linked immunosorbent assay.)
Test [9] concerns the target gp120 derived from the HIV-1 strain LAI (Repligen) (HIV-1 strain LAI) (UniProt P03377). The experiment in a line: BIAcore sandwich, same Fab injected twice (negative control); competitor: b6.
For test [10] the target is unchanged. In words: BIAcore sandwich, Fab 2 on gp120 held by Fab 1; competitor (Fab 1): b12.
Test [11] addresses HXBc2 mature gp120 expressed by COS-1 cells (HIV-1 (HXBc2 clone)) (UniProt P04578). In words: Fab on radiolabeled COS-1 cells, lysis, precipitation, gel densitometry.
Test [12] has as its target gp120 derived from the HIV-1 strain LAI (Repligen) (HIV-1 strain LAI) (UniProt P03377). In words: BIAcore sandwich, same Fab injected twice (negative control); competitor: b12.
In test [13] the target is recombinant gp120 of HIV-1 strain IIIB (HIV-1 strain IIIB) (UniProt P04578). The experiment in a line: SPR (BIAcore).

As a reminder, the koff is a measure of how fast the partners let go of each other. A low value points to slow dissociation. The kon is the second-order rate constant of association. As a reminder, the IC50 is the concentration that gives 50% inhibition.

For Fab b6, the koff in [1] was found to be 0.00016 s⁻¹. Moreover, in test [1], the kon came to 16000 M⁻¹ s⁻¹. For the same substance, the response (RU), background subtracted is 0 RU in [2], 21 RU in test [4] and 17 RU in test [10]. For the same substance, the results for the Ka in [3] and in test [6] were under 6e+06 M⁻¹ and 9.7e+07 M⁻¹, respectively. In [5], the Fab concentration at saturation was over 150 µg/mL. Moreover, the Fab/reference serum binding ratio in test [7] stood at 1.48. In [8], the IC50 turned out to be 1 nM. Moreover, in test [9], the response (RU), background amounted to 38 RU.
In test [1], Fab b12 yielded a koff of 0.00043 s⁻¹. This substance returned a kon in test [1] of 45000 M⁻¹ s⁻¹. Moreover, the Ka was determined as 3e+07 M⁻¹ in [3] and 1.1e+08 M⁻¹ in [6]. In test [11], this substance came in with an excess of gp120 over gp160 immunoreacted of over 50%. The results for the response (RU), background subtracted in test [4] and in test [10] were 22 RU and 0 RU, respectively. For the same substance, in [5], the Fab concentration at saturation stood at 100 µg/mL. This substance displayed a response (RU), background in [12] of 17 RU. In test [7], the Fab/reference serum binding ratio turned out to be 0.23. The IC50 in test [8] is 1 nM.
As for b12 IgG1 (antibody), the Ka in test [13] was 1.3e+09 M⁻¹.
